The record followed here is article PMC4791140 (Molecular Biology of the Cell, 2016).

This experiment deals with T1, MBP-tagged WHAMM membrane-interaction domain (WMD) (human, UniProt Q8TF30 1-260).
T1 sequence (looked up): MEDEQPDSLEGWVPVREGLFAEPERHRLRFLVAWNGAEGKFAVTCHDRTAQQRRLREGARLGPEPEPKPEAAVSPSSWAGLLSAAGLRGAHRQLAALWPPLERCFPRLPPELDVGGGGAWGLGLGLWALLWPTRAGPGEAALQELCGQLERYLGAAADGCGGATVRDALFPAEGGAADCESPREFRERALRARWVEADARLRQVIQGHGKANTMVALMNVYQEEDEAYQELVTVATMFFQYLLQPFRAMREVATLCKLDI
Put plainly: pull-down.

B1: GST-Rab1a, membrane-extracted prenylated form (Rab1(M)) (natural protein)
chain: not shown
modifications: prenylated (residues not stated)
As for B1, the binding result is on record as “binds”.
